Reference: article PMC8980529, “Complement Factor H-Related Proteins FHR1 and FHR5 Interact With Extracellular Matrix Ligands, Reduce Factor H Regulatory Activity and Enhance Complement Activation” (Frontiers in Immunology, 2022)

B1: Recombinant human factor H-related protein 1 (natural protein, UniProt Q03591 19-330, looked up)
chain: EATFCDFPKINHGILYDEEKYKPFSQVPTGEVFYYSCEYNFVSPSKSFWTRITCTEEGWSPTPKCLRLCFFPFVENGHSESSGQTHLEGDTVQIICNTGYRLQNNENNISCVERGWSTPPKCRSTDTSCVNPPTVQNAHILSRQMSKYPSGERVRYECRSPYEMFGDEEVMCLNGNWTEPPQCKDSTGKCGPPPPIDNGDITSFPLSVYAPASSVEYQCQNLYQLEGNKRITCRNGQWSEPPKCLHPCVISREIMENYNIALRWTAKQKLYLRTGESAEFVCKRGYRLSSRSHTLRTTCWDGKLEYPTCAKR
notes: complement factor H-related protein 1 (FHR1), human, recombinant; Commercial recombinant protein; also called FHR1; source: bought: Novoprotein via Gentaur (recombinant)
B2: Recombinant human factor H-related protein 5 (natural protein, UniProt Q9BXR6 19-569, looked up)
chain: EGTLCDFPKIHHGFLYDEEDYNPFSQVPTGEVFYYSCEYNFVSPSKSFWTRITCTEEGWSPTPKCLRMCSFPFVKNGHSESSGLIHLEGDTVQIICNTGYSLQNNEKNISCVERGWSTPPICSFTKGECHVPILEANVDAQPKKESYKVGDVLKFSCRKNLIRVGSDSVQCYQFGWSPNFPTCKGQVRSCGPPPQLSNGEVKEIRKEEYGHNEVVEYDCNPNFIINGPKKIQCVDGEWTTLPTCVEQVKTCGYIPELEYGYVQPSVPPYQHGVSVEVNCRNEYAMIGNNMITCINGIWTELPMCVATHQLKRCKIAGVNIKTLLKLSGKEFNHNSRIRYRCSDIFRYRHSVCINGKWNPEVDCTEKREQFCPPPPQIPNAQNMTTTVNYQDGEKVAVLCKENYLLPEAKEIVCKDGRWQSLPRCVESTAYCGPPPSINNGDTTSFPLSVYPPGSTVTYRCQSFYKLQGSVTVTCRNKQWSEPPRCLDPCVVSEENMNKNNIQLKWRNDGKLYAKTGDAVEFQCKFPHKAMISSPPFRAICQEGKFEYPICE
notes: complement factor H-related protein 5 (FHR5), human, recombinant; called 'full-length FHR5' in the discussion; Commercial recombinant protein; The discussion speaks of 'the dimerized full-length protein'; also called FHR5; full-length FHR5; source: bought: Novoprotein via Gentaur (recombinant)
B3: Human vitronectin (natural protein, UniProt P04004 20-478, looked up)
chain: DQESCKGRCTEGFNVDKKCQCDELCSYYQSCCTDYTAECKPQVTRGDVFTMPEDEYTVYDDGEEKNNATVHEQVGGPSLTSDLQAQSKGNPEQTPVLKPEEEAPAPEVGASKPEGIDSRPETLHPGRPQPPAEEELCSGKPFDAFTDLKNGSLFAFRGQYCYELDEKAVRPGYPKLIRDVWGIEGPIDAAFTRINCQGKTYLFKGSQYWRFEDGVLDPDYPRNISDGFDGIPDNVDAALALPAHSYSGRERVYFFKGKQYWEYQFQHQPSQEECEGSSLSAVFEHFAMMQRDSWEDIFELLFWGRTSAGTRQPQFISRDWHGVPGQVDAAMAGRIYISGMAPRPSLAKKQRFRHRNRKGYRSQRGHSRGRNQNSRRPSRATWLSLFSSEESNLGANNYDDYRMDWLVPATCEPIQSVFFFSGDKYYRVNLRTRRVDTVDPPYPRSIAQYWLGCPAPGHL
notes: vitronectin, human; source: bought: Sigma-Aldrich

Key:
Settings in all cases: both partners purified
Human vitronectin = target: B3; experiment: peptide or protein array; ECM proteins (0.5 mg/ml) printed on nitrocellulose-covered slides in triplicates, blocked with 4% BSA; incubated with FHR1 (5, 25, 50 µg/ml) or FHR5 (0.5, 5, 20 µg/ml); detected with goat anti-human FH or anti-FHR5 and Alexa-647 anti-goat IgG; signal above gelatin taken as binding
Purified human C3b = target: T1, Purified human C3b (human, UniProt P01024 23-667; P01024 749-1663); experiment: ELISA; FHR5, CCPs 1-4, CCPs 3-7, CCPs 8-9 and HSA immobilised at 5 µg/ml, blocked with 4% BSA; 20 µg/ml C3b, iC3b, C3c or 10 µg/ml C3d added; detected with anti-human C3 or anti-human C3d
T1 construct: complement C3 beta chain, human; complement C3b alpha' chain, human; also called soluble C3b; fluid-phase C3b; source: bought: Merck (purified human)
T1 sequence (P01024 23-667, chain 1 of 2): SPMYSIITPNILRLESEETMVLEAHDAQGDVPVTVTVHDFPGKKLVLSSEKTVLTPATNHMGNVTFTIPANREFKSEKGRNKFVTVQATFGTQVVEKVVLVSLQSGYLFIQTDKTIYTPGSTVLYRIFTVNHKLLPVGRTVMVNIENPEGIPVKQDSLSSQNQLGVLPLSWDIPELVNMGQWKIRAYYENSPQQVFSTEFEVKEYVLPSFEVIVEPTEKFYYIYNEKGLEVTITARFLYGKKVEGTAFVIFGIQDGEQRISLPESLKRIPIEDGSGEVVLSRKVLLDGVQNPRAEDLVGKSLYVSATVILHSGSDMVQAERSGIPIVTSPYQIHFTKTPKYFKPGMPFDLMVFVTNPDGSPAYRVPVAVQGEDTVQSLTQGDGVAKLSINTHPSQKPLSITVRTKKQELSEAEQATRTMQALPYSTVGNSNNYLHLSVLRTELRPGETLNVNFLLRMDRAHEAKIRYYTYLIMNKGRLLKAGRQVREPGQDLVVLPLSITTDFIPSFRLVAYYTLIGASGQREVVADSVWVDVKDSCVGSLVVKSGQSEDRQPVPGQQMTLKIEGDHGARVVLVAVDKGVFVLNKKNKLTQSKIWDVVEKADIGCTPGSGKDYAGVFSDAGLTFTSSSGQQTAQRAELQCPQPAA
T1 sequence (P01024 749-1663, chain 2 of 2): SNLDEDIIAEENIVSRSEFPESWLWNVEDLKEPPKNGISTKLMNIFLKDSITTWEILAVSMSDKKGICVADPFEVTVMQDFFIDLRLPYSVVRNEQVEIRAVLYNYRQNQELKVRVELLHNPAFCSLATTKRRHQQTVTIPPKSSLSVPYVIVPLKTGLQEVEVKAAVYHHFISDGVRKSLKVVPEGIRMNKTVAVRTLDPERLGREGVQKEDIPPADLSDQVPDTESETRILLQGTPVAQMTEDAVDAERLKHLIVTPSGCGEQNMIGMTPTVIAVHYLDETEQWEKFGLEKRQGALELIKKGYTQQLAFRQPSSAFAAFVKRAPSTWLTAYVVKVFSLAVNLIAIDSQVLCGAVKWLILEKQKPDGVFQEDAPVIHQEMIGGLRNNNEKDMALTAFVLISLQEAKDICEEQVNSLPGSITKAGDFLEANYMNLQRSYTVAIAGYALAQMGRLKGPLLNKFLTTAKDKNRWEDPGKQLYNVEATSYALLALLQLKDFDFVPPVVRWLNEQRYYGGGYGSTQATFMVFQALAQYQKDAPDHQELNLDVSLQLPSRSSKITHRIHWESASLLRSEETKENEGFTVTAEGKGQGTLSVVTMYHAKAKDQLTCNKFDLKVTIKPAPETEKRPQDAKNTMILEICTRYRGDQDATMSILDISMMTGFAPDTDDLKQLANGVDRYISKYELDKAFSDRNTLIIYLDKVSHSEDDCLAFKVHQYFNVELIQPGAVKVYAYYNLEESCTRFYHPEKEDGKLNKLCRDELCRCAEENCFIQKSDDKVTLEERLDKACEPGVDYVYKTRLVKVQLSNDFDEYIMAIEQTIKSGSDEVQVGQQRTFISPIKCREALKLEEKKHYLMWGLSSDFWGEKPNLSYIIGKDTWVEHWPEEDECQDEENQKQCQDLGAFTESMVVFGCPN

C3(H2O) = target: T2, C3(H2O) (human, UniProt P01024 23-667; P01024 672-1663); experiment: ELISA; 10 µg/ml FHR5, CCPs 1-4, CCPs 3-7, CCPs 8-9 and alpha-1-antitrypsin immobilised, incubated with 5 µg/ml C3, C3(H2O) and C3b; detected with anti-human C3
T2 construct: complement C3 beta chain, human; complement C3 alpha chain, human; Same chains as C3; source: generated from purified human C3 (Merck) with ten freeze/thaw cycles
T2 sequence (P01024 23-667, chain 1 of 2): as the sequence (P01024 23-667, chain 1 of 2) above
T2 sequence (P01024 672-1663, chain 2 of 2): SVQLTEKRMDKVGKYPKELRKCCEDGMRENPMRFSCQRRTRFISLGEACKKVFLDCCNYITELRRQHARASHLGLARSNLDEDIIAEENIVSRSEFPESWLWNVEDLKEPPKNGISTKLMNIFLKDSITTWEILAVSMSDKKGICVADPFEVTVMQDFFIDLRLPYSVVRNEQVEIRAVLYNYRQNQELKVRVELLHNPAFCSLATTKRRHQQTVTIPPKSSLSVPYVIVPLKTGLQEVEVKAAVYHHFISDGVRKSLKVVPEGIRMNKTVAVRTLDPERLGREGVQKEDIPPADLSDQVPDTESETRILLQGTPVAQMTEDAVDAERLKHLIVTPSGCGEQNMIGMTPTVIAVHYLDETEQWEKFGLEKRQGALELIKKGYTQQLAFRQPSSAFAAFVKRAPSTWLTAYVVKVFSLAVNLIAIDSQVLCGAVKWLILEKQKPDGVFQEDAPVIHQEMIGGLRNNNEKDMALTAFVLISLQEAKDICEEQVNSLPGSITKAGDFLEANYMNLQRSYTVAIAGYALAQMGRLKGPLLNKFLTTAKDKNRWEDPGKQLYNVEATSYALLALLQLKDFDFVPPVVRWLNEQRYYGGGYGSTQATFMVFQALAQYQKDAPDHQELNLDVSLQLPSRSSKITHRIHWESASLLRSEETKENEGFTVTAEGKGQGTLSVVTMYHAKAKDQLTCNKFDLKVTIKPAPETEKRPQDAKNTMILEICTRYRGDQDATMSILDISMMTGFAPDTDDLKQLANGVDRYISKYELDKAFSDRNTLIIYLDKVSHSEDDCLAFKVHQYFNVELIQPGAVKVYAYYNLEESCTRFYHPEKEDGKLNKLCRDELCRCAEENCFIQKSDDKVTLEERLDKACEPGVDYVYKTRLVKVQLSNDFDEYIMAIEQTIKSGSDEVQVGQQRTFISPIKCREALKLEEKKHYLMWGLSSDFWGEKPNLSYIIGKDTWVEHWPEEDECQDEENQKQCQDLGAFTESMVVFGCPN

Purified human factor H = target: T3, Purified human factor H (human, UniProt P08603 19-1231); experiment: peptide or protein array; competition: printed ECM proteins incubated with 25 µg/ml FH with or without FHR1 (5, 25, 50 µg/ml) or FHR5 (0.5, 5, 20 µg/ml); bound FH detected with mAb A254 that does not cross-react with FHR1 and FHR5
T3 construct: complement factor H, human, 155-kDa serum glycoprotein, 20 CCP domains; also called FH; source: bought: Merck (purified human)

[1] = target: B2; experiment: peptide or protein array; ECM proteins (0.5 mg/ml) printed on nitrocellulose-covered slides in triplicates, blocked with 4% BSA; incubated with FHR1 (5, 25, 50 µg/ml) or FHR5 (0.5, 5, 20 µg/ml); detected with goat anti-human FH or anti-FHR5 and Alexa-647 anti-goat IgG; signal above gelatin taken as binding

Binder: B1
binding result (Human vitronectin): binds

Binder: B2
binding result (Purified human C3b): binds
binding result (C3(H2O)): binds

Binder: B3
binding result (Purified human factor H): binds
binding result [1]: binds
